Measured values: publication doi:10.1101/2021.11.17.468963

Biological target: human glyceraldehyde 3-phosphate dehydrogenase (GAPDH) (human) (UniProt P04406)
Assay: cryo-EM structure

Sequence of human glyceraldehyde 3-phosphate dehydrogenase (GAPDH), P04406 1-335 (enzyme; other documents disagree on this pair) (P04406 whole entry): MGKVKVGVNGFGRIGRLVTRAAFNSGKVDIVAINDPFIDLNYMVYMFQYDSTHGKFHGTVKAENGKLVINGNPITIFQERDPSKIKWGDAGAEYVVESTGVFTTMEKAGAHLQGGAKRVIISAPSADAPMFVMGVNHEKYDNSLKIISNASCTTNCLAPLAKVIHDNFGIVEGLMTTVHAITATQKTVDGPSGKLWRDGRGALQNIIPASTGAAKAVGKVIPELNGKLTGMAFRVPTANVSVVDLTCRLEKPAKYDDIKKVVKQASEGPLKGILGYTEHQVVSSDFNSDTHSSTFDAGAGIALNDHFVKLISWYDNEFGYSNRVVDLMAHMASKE

human glyceraldehyde 3-phosphate dehydrogenase (GAPDH), P04406 1-335 (enzyme; other documents disagree on this pair)
stoichiometry N: 4
